# Assays:
# HLA-C*07:02 = experiment: IEDB peptide-MHC binding, purified MHC/direct/fluorescence; filed as Kd, often an IC50 or EC50 that approximates it; ≥ and ≤ were set here for values at or beyond the usual limits of such assays
# HLA-C*06:02 = experiment: as above
# HLA-A*32:15 = experiment: IEDB peptide-MHC binding, purified MHC/competitive/fluorescence; filed as Kd, often an IC50 or EC50 that approximates it; ≥ and ≤ were set here for values at or beyond the usual limits of such assays; conditions: source organism: Mycobacterium tuberculosis C
# HLA-B*15:01 [1] = experiment: as above; conditions: source organism: Mycobacterium tuberculosis C
# HLA-B*83:01 = experiment: as above; conditions: source organism: Mycobacterium tuberculosis C
# HLA-B*45:06 = experiment: as above; conditions: source organism: Mycobacterium tuberculosis C
# HLA-B*15:42 = experiment: as above; conditions: source organism: Mycobacterium tuberculosis C
# HLA-B*51:01 = experiment: IEDB peptide-MHC binding, purified MHC/direct/fluorescence; filed as Kd, often an IC50 or EC50 that approximates it; ≥ and ≤ were set here for values at or beyond the usual limits of such assays; conditions: source organism: Mycobacterium tuberculosis
# HLA-B*40:01 = experiment: as above
# HLA-A*31:01 = experiment: as above
# HLA-B*15:09 = experiment: as above; conditions: source organism: Mycobacterium tuberculosis str. Haarlem
# HLA-A*03:01 = experiment: as above
# HLA-A*69:01 = experiment: as above
# HLA-A*26:01 = experiment: as above
# HLA-A*11:01 = experiment: as above
# HLA-B*27:05 [2] = experiment: as above
# HLA-B*46:01 = experiment: as above; conditions: source organism: Mycobacterium tuberculosis
# HLA-B*58:01 = experiment: as above
# HLA-A*01:01 = experiment: as above
# HLA-B*15:17 [3] = experiment: as above; conditions: source organism: Mycobacterium tuberculosis
# HLA-B*57:01 [4] = experiment: as above; conditions: source organism: Mycobacterium tuberculosis
# HLA-B*48:01 [5] = experiment: as above; conditions: source organism: Mycobacterium tuberculosis
# HLA-A*02:01 [6] = experiment: as above
# HLA-C*04:01 = experiment: as above; conditions: source organism: Homo sapiens
# HLA-B*27:05 [7] = experiment: IEDB peptide-MHC binding, purified MHC/competitive/fluorescence; filed as Kd, often an IC50 or EC50 that approximates it; ≥ and ≤ were set here for values at or beyond the usual limits of such assays; conditions: source organism: Encephalitozoon cuniculi GB-M1
# HLA-B*73:01 = experiment: as above
# HLA-B*48:01 [8] = experiment: as above; conditions: source organism: Encephalitozoon cuniculi GB-M1
# HLA-B*18:01 = experiment: as above; conditions: source organism: Variola virus
# HLA-B*07:02 [9] = experiment: as above; conditions: source organism: Variola virus
# HLA-A*68:02 = experiment: as above; conditions: source organism: Variola virus
# HLA-B*15:17 [10] = experiment: as above; conditions: source organism: Variola virus
# HLA-B*57:01 [11] = experiment: as above; conditions: source organism: Variola virus
# HLA-B*08:01 [12] = experiment: as above; conditions: source organism: Variola virus
# HLA-A*26:02 = experiment: as above; conditions: source organism: Variola virus
# HLA-A*02:01 [13] = experiment: as above; conditions: source organism: Variola virus
# HLA-A*24:03 = experiment: IEDB peptide-MHC binding, purified MHC/direct/fluorescence; filed as Kd, often an IC50 or EC50 that approximates it; ≥ and ≤ were set here for values at or beyond the usual limits of such assays; conditions: source organism: Camelpox virus M-96
# HLA-B*15:01 [14] = experiment: as above
# HLA-B*08:02 = experiment: as above; conditions: source organism: Variola virus
# HLA-A*26:03 = experiment: as above; conditions: source organism: Variola virus
# HLA-A*30:01 = experiment: as above; conditions: source organism: Vibrio cholerae
# HLA-B*07:02 [15] = experiment: as above; conditions: source organism: Vibrio cholerae
# HLA-B*44:02 = experiment: as above; conditions: source organism: Vibrio cholerae
# HLA-B*08:01 [16] = experiment: as above; conditions: source organism: Vibrio cholerae
# [17] = source organism: Vibrio vulnificus CMCP6
# [18] = source organism: Mycobacterium tuberculosis
# [19] = source organism: Encephalitozoon cuniculi GB-M1
# [20] = source organism: Camelpox virus M-96
# [21] = source organism: Vibrio cholerae
sequence,measurement,setting,value
FMIVNNFPV,Kd,HLA-C*07:02; [17],1.01 µM
same,Kd,HLA-C*06:02; [17],0.633 µM
YYNAFHWAI,Kd,HLA-C*07:02; source organism: Homo sapiens,0.715 µM
LPAEVRAAF,Kd,HLA-A*32:15,0.757 µM
same,Kd,HLA-B*15:01 [1],≥ 20 µM
same,Kd,HLA-B*83:01,0.0676 µM
same,Kd,HLA-B*45:06,≥ 5 µM
same,Kd,HLA-B*15:42,≥ 5 µM
same,Kd,HLA-B*51:01,≥ 20 µM
same,Kd,HLA-B*40:01; [18],≥ 20 µM
same,Kd,HLA-A*31:01; [18],≥ 20 µM
same,Kd,HLA-B*15:09,≥ 20 µM
same,Kd,HLA-A*03:01; [18],≥ 20 µM
same,Kd,HLA-A*69:01; [18],1.31 µM
same,Kd,HLA-A*26:01; source organism: Mycobacterium tuberculosis str. Haarlem,0.889 µM
same,Kd,HLA-A*11:01; [18],≥ 20 µM
same,Kd,HLA-B*27:05 [2]; [18],≥ 20 µM
same,Kd,HLA-B*46:01,≥ 20 µM
same,Kd,HLA-B*58:01; [18],≥ 20 µM
same,Kd,HLA-A*01:01; [18],4.61 µM
same,Kd,HLA-B*15:17 [3],≥ 20 µM
same,Kd,HLA-B*57:01 [4],≥ 20 µM
same,Kd,HLA-B*48:01 [5],≥ 20 µM
same,Kd,HLA-A*02:01 [6]; [18],≥ 20 µM
WYDALCVLL,Kd,HLA-C*04:01,0.035 µM
YRFNLRRKM,Kd,HLA-B*27:05 [7],0.0012 µM
same,Kd,HLA-B*73:01; [19],0.0851 µM
same,Kd,HLA-B*48:01 [8],≥ 20 µM
same,Kd,HLA-C*06:02; [19],0.01 µM
EYKKFIATF,Kd,HLA-B*18:01,0.0583 µM
same,Kd,HLA-B*07:02 [9],3 µM
same,Kd,HLA-A*68:02,≥ 20 µM
same,Kd,HLA-B*15:17 [10],0.865 µM
same,Kd,HLA-B*57:01 [11],4.85 µM
same,Kd,HLA-B*08:01 [12],≥ 20 µM
same,Kd,HLA-A*26:02,0.818 µM
same,Kd,HLA-A*02:01 [13],≥ 20 µM
same,Kd,HLA-A*31:01; [20],≥ 20 µM
same,Kd,HLA-A*24:03,0.032 µM
same,Kd,HLA-B*15:01 [14]; [20],≥ 20 µM
same,Kd,HLA-A*69:01; [20],≥ 20 µM
same,Kd,HLA-A*26:01; source organism: Variola virus,≥ 20 µM
same,Kd,HLA-A*11:01; [20],≥ 20 µM
same,Kd,HLA-B*08:02,≥ 20 µM
same,Kd,HLA-B*58:01; source organism: Variola virus,0.256 µM
same,Kd,HLA-A*01:01; [20],≥ 20 µM
same,Kd,HLA-A*26:03,≥ 20 µM
SDFFDRLQV,Kd,HLA-B*73:01; source organism: Cryptosporidium parvum Iowa II,≥ 20 µM
GKFFAQAFL,Kd,HLA-B*73:01; [21],≥ 20 µM
same,Kd,HLA-B*40:01; [21],≥ 20 µM
same,Kd,HLA-A*31:01; [21],≥ 20 µM
same,Kd,HLA-B*15:01 [14]; [21],≥ 20 µM
same,Kd,HLA-A*03:01; [21],≥ 20 µM
same,Kd,HLA-A*69:01; [21],≥ 20 µM
same,Kd,HLA-A*26:01; [21],≥ 20 µM
same,Kd,HLA-A*11:01; [21],≥ 20 µM
same,Kd,HLA-B*27:05 [2]; [21],1.29 µM
same,Kd,HLA-A*30:01,0.753 µM
same,Kd,HLA-B*07:02 [15],≥ 20 µM
same,Kd,HLA-B*44:02,≥ 20 µM
same,Kd,HLA-B*58:01; [21],≥ 20 µM
same,Kd,HLA-A*01:01; [21],≥ 20 µM
same,Kd,HLA-B*08:01 [16],≥ 20 µM
same,Kd,HLA-A*02:01 [6]; [21],≥ 20 µM
RKKLRPRWL,Kd,HLA-C*06:02; source organism: dengue virus type 1,≥ 20 µM
YFYYNAFHW,Kd,HLA-C*07:02; source organism: Homo sapiens,2.06 µM
same,Kd,HLA-C*04:01,≥ 20 µM
